Paper PMC6326806

Tests used:
[1] = biological target: Plk1 (UniProt P53350); experiment: GST-Plk1 pull-down from cell lysate; conditions: reference: wild type; sites T476
[2] = biological target: Plk1 (UniProt P53350); experiment: GFP-trap co-IP of Myc-Plk1; conditions: reference: GFP-B-Myb wild type; sites T476

binding against the reference [1] | binding against the reference [2] | Substance
lost | – | B-Myb (from UniProt P10244) T476A
– | lost | B-Myb (from UniProt P10244) GFP-B-Myb T476A
